Data taken from publication PMC4091690, “A Broadly Conserved G-Protein-Coupled Receptor Kinase Phosphorylation Mechanism Controls Drosophila Smoothened Activity” (PLoS Genetics, 2014).
Values belong to the molecule of their own block, whether it stands above or below them.

How the values were obtained:
[1] = target: Smo^SD.c12D (Smo^SD with Gprk2 phosphorylation clusters 1 and 2 changed to Asp), C-terminally tagged with GFP10 or RLucII (UniProt P91682); experiment: BRET; settings: S2 cells, Luc + GFP10 tagged pair, read off a plot
[2] = target: T1, Smo^core (Drosophila Smoothened amino acids 1-663), C-terminally tagged with GFP10 (Drosophila, UniProt P91682 32-663); experiment: FRET or BRET; BRET in intact S2-R+ cells between C-terminally GFP10-tagged truncated Smo variants (300 ng) and Cos2-RLucII (75 ng), myc-Fu (75 ng) co-transfected; cells treated with control (beta-gal), gprk2 or smo 3'UTR dsRNA, without or with myc-Gprk2; net BRET; settings: partners not purified
T1 construct: signal peptide in the construct; Smoothened (Smo), Drosophila melanogaster, amino acids 1-663, truncated just after the third Gprk2 phosphorylation cluster; also called Smo^core-GFP10; source: S2-R+ cells, transfected (pRmHa3.puro, induced with CuSO4), in intact cells; not shown: GFP10, C-terminal, kept
T1 sequence (looked up): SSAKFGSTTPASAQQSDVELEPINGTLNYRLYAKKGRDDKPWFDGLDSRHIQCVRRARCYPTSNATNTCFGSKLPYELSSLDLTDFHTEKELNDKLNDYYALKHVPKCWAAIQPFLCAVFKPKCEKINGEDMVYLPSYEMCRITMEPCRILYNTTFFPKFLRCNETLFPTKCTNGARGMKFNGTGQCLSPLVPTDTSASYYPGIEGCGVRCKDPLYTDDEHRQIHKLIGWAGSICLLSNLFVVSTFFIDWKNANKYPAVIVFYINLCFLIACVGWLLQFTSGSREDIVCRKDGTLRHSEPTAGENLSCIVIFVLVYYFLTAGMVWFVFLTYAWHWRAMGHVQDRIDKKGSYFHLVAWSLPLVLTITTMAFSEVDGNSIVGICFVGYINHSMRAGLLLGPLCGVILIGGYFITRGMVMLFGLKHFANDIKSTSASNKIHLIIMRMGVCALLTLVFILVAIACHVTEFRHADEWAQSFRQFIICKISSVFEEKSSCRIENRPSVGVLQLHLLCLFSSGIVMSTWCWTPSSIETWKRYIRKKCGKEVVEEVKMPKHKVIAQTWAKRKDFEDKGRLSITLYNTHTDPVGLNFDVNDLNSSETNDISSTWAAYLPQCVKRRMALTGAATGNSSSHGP

response ([1]; dsRNA targeting β-gal (control), parent: est. 100): 170
response ([1]; gprk2 dsRNA, parent: est. 67): 160
Molecule: Smo^SD (PKA- and CKI-phosphomimetic form of Drosophila Smoothened), C-terminally tagged with GFP10 or Renilla luciferase II (from UniProt P91682) S604D; T606D; T610D; T612D; S626D; S627D; T629D; S633D; S634D; T635D

fold increase of net BRET on Gprk2 overexpression against control cells [2]: > 2.2 fold
B1: Costal-2 (Cos2), C-terminally tagged with Renilla luciferase II (natural protein, Drosophila, UniProt O16844 1-1201, looked up)
chain: MEIPIQVAVRIFPHRELKDLLRSFGPTEPKKDAQAVDEGADSKDSEAQVPAAEKDNPSISETDPNGNAEQDSAADSKTIPDANGNDSGQKDYPDSAYCVQAIPISASALGLPSALPGGDPMDSIAAGLIQVGPHTVPVTHALPSSSSQEQVYHQTVFPLITLFLEGFDASVVTYGQRGQGKSYTLYGNVQDPTLTDSTEGVVQLCVRDIFSHISLHPERTYAINVGFVEICGGDVCDLLGMGNIHCTNVDAVFHWLQVGLSARQSLPAHTLFTLTLEQQWVSKEGLLQHRLSTASFSDLCGTERCGDQPPGRPLDAGLCMLEQVISTLTDPGLMYGVNGNIPYGQTTLTTLLKDSFGGRAQTLVILCVSPLEEHLPETLGNLQFAFKVQCVRNFVIMNTYSDDNTMIVQPAEPVPESNSSAGPLSQAGPGDNFGLQFAASQWSKLVTNAEGLFSKLIDSKLITEVEKEQIEEWLFLKQECEECLSSTEAMRQQKQLVPILEAEEPEDVNSEAANSESPNSDNENDTDNESHRPDLDDKIESLMEEFRDKTDALILEKHAEYLSKHPKAVMQSQDREIEAQPPEENGDDRKVSIGSRRRSVQPGASLSTAELAMLNRVASQQPPPPIDPESVVDPLESSSGEGIRQAALAAAAATAPIEQLQKKLRKLVAEIEGKQRQLREIEETIQVKQNIIAELVKNSDTRSHAKQRFHKKRAKLEAECDKAKKQLGKALVQGRDQSEIERWTTIIGHLERRLEDLSSMKHIAGESGQKVKKLQQSVGESRKQADDLQKKLRKECKLRCQMEAELAKLRESRETGKELVKAQGSPEQQGRQLKAVQARITHLNHILREKSDNLEEQPGPEQQETLRHEIRNLRGTRDLLLEERCHLDRKLKRDKVLTQKEERKLLECDEAIEAIDAAIEFKNEMITGHRSIDTSDRIQREKGEQMLMARLNRLSTEEMRTLLYKYFTKVIDLRDSSRKLELQLVQLERERDAWEWKERVLSNAVRQARLEGERNAVLLQRQHEMKLTLMLRHMAEETSASSASYGERALAPACVAPPVQASSDFDYDHFYKGGGNPSKALIKAPKPMPTGSALDKYKDKEQRSGRNIFAKFHVLTRYASAAAAGSSGSTAEESTALIESTTTATATTTSTTTTGAVGKVKDKALVSFRPEQLKRLMPAPTATKVTRQKNKIIIQDASRRN
notes: Costal-2 (Cos2), kinesin-like protein, Drosophila; also called Cos2-Luc; Cos2-RLucII; source: S2-R+ cells, transfected (pRmHa3.puro, induced with CuSO4), in intact cells; not shown: RLucII, C-terminal, kept
